# B1: PKD2L1 (parent)
# chain: SGPEAARAGGWVSGEEFYMLTRRV
# Variants of: B1
# Test: protein stability index of a GFP-peptide fusion (GPS, HEK-293T) (PSI 1-6); higher = more stable
# Conditions: c terminus: a fixed tail appended
# 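Note: lentivirally expressed fusions sorted by FACS into six bins by GFP to DsRed ratio, PSI derived from sequencing read proportions per bin multiplied by bin number.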
row,Variant,protein stability index
1,S13F,2.44
2,S13A,1.96
3,S13C,2.08
4,S13Y,2.07
5,S13H,2.74
6,S13R,2.84
7,S13T,2.13
8,S13W,2.17
9,S13P,2.78
10,S13M,2.14
11,S13G,2.19
12,S13L,1.77
13,S13D,3.01
14,S13K,2.05
15,S13V,2.03
16,S13I,1.47
17,S13E,3.15
18,S13Q,3.19
19,S13N,2.26
20,E16Q,2.25
21,E16V,1.64
22,E16H,1.64
23,E16C,1.56
24,E16F,2.75

row,Variant,protein stability index
1,E16S,2.73
2,E16A,1.92
3,E16D,2.29
4,E16K,2.5
5,E16G,2.6
6,E16W,2.42
7,E16N,2.42
8,E16Y,2.02
9,E16P,1.78
10,E16I,2.23
11,E16R,1.93
12,E16T,2.26
13,E16M,2.7
14,E16L,1.76
15,V12F,2.12
16,V12L,2.6
17,V12I,2.2
18,V12E,3.52
19,V12R,2.86
20,V12H,1.84
21,V12K,2.47
22,V12G,3.15
23,V12Y,1.96
24,V12T,2.31

row,Variant,protein stability index
1,V12S,3.38
2,V12D,2.91
3,V12M,2.25
4,V12C,2.46
5,V12P,2.31
6,V12A,2.51
7,V12N,2.73
8,V12W,2.28
9,V12Q,2.49
10,Y18D,3.94
11,Y18L,2.56
12,Y18T,3.52
13,Y18F,2.23
14,Y18Q,3.03
15,Y18E,3.77
16,Y18S,3.4
17,Y18G,3.44
18,Y18K,4.08
19,Y18C,3.05
20,Y18N,3.69
21,Y18A,3.38
22,Y18M,2.84
23,Y18P,3.21
24,Y18I,2.32

row,Variant,protein stability index
1,Y18W,2.69
2,Y18V,2.89
3,Y18H,3.46
4,Y18R,3.55
5,G14N,3.21
6,G14K,2.52
7,G14Y,2.08
8,G14Q,2.57
9,G14D,3.91
10,G14I,2.63
11,G14T,3
12,G14W,2.19
13,G14P,3.09
14,G14E,3.18
15,G14A,3.24
16,G14H,2.4
17,G14F,1.76
18,G14M,2.46
19,G14V,2.27
20,G14R,3.17
21,G14L,2.04
22,G14S,2.6
23,G10N,2.55
24,G10A,2.22

row,Variant,protein stability index
1,G10H,3.21
2,G10W,2.53
3,G10V,1.72
4,G10S,2.32
5,G10K,2.64
6,G10T,2.73
7,G10C,1.82
8,G10L,2.17
9,G10E,3.31
10,G10P,2.37
11,G10Q,2.91
12,G10D,3.01
13,G10M,2.31
14,G10R,2.56
15,G10I,3.36
16,G10Y,1.79
17,A6T,2.86
18,A6W,1.06
19,A6K,2.12
20,A6G,3.16
21,A6M,1.7
22,A6N,2.85
23,A6V,3.13
24,A6F,1.68

row,Variant,protein stability index
1,A6S,3.01
2,A6I,2.02
3,A6L,3.07
4,A6D,2.35
5,A6Y,2.4
6,A6E,2.65
7,A6P,2.21
8,A6C,2.31
9,A6R,2.43
10,A6Q,2.13
11,A6H,2.24
12,E15H,2.17
13,E15L,2.02
14,E15P,2.52
15,E15C,1.54
16,E15N,2.46
17,E15I,1.59
18,E15Y,1.65
19,E15G,2.2
20,E15V,2.03
21,E15Q,2.16
22,E15R,2.62
23,E15T,2.45
24,E15F,3.15

row,Variant,protein stability index
1,E15W,1.99
2,E15K,2.92
3,E15A,1.86
4,E15S,2.1
5,E15D,2.54
6,E15M,1.48
7,F17T,3.37
8,F17G,4.13
9,F17W,2.14
10,F17L,2.85
11,F17A,4.1
12,F17M,3.27
13,F17N,3.89
14,F17Q,4.05
15,F17R,3.68
16,F17S,3.58
17,F17H,3.33
18,F17P,3.89
19,F17V,2.5
20,F17I,2.67
21,F17K,3.39
22,F17Y,2.79
23,F17C,3.03
24,F17D,4.59

row,Variant,protein stability index
1,F17E,4.26
2,M19A,2.13
3,M19I,2.01
4,M19Y,2.39
5,M19C,2.82
6,M19N,3.63
7,M19H,3.08
8,M19W,2.68
9,M19D,3.5
10,M19L,3.28
11,M19G,3.03
12,M19P,3.94
13,M19R,3.11
14,M19K,3.1
15,M19V,1.48
16,M19Q,3.38
17,M19F,2.93
18,M19T,2.94
19,M19S,3.43
20,M19E,3.69
21,A8L,2.02
22,A8N,2.18
23,A8S,2.31
24,A8F,1.7

row,Variant,protein stability index
1,A8P,2.05
2,A8M,1.8
3,A8V,2.25
4,A8W,2.71
5,A8H,1.81
6,A8E,3.22
7,A8Y,1.76
8,A8C,1.97
9,A8D,2.43
10,A8G,2.15
11,A8K,2.13
12,A8Q,2.65
13,A8T,2.24
14,A8R,2.03
15,A8I,1.76
16,G9K,1.97
17,G9D,2.5
18,G9N,2.13
19,G9M,1.97
20,G9C,1.59
21,G9Y,2.21
22,G9S,2.42
23,G9Q,2.51
24,G9E,2.5

row,Variant,protein stability index
1,G9I,2.25
2,G9H,2.03
3,G9A,1.92
4,G9V,1.85
5,G9L,2.95
6,G9R,1.95
7,G9T,1.92
8,G9F,2.06
9,G9P,2.39
10,R22K,2.04
11,R22D,3.43
12,R22G,2.33
13,R22Y,2.41
14,R22S,2.55
15,R22Q,2.25
16,R22I,2.28
17,R22L,3.52
18,R22E,3.26
19,R22W,1.72
20,R22C,1.55
21,R22T,1.33
22,R22P,2.44
23,R22N,2.81
24,R22H,1.96

row,Variant,protein stability index
1,W11E,4.09
2,W11A,3.56
3,W11K,2.21
4,W11S,2.89
5,W11L,3.09
6,W11Y,2.75
7,W11C,2.79
8,W11H,4.33
9,W11N,3.85
10,W11M,2.76
11,W11V,3.19
12,W11G,3.28
13,W11I,2.6
14,W11R,3.19
15,W11D,3.52
16,W11P,3.19
17,W11Q,3.92
18,W11F,2.05
19,W11T,3.09
20,R7I,2.11
21,R7S,2.42
22,R7W,2.6
23,R7K,2.72
24,R7F,2.9

row,Variant,protein stability index
1,R7G,2.24
2,R7V,2.56
3,R7P,2.68
4,R7E,2.75
5,R7T,2.44
6,R7N,2.44
7,R7Y,2.31
8,R7L,2.58
9,R7Q,3.04
10,R7M,2.64
11,L20S,3.61
12,L20M,2.93
13,L20T,2.81
14,L20K,3.46
15,L20E,3.64
16,L20F,1.81
17,L20N,3.79
18,L20H,2.69
19,L20I,2.01
20,L20D,4.19
21,L20C,2.97
22,L20Y,2.74
23,L20G,4.08
24,L20W,1.73

row,Variant,protein stability index
1,L20R,3.79
2,L20P,3.94
3,L20A,3.16
4,L20Q,3.1
5,L20V,2.25
6,A5Q,2.45
7,A5P,2.2
8,A5V,3.28
9,A5Y,2.18
10,A5T,1.82
11,A5S,1.96
12,A5W,2.06
13,A5R,2.4
14,R23N,2.5
15,R23Q,1.92
16,R23M,1.84
17,R23A,1.85
18,R23D,3.49
19,R23S,2.97
20,R23E,2.84
21,R23F,2.06
22,R23G,2.93
23,R23P,2.62
24,R23C,2.14

row,Variant,protein stability index
1,R23K,2.45
2,R23L,1.53
3,R23H,2.05
4,T21V,1.57
5,T21A,2.41
6,T21K,3.71
7,T21Q,2.94
8,T21E,3.29
9,T21P,3.33
10,T21N,2.9
11,T21R,3.1
12,T21I,1.75
13,T21M,2.67
14,T21S,2.62
15,T21G,3.08
16,T21D,3.76
17,T21W,2.12
18,T21H,2.27
19,T21C,2.29
20,T21F,1.5
21,T21Y,1.6
22,T21L,2.62

# Source: the supplement of paper PMC10567573
